Assay results from US20200085917A1.
Blank lines part the entries; values can stand above or below the substance they belong to.

Columns and labels:
Assay in all cases: GST pull-down, LC-MS/MS
[1] = target: T1, Nipsnap1_IPI:IPI00115824.1 (mouse) (UniProt O55125)
T1 sequence (looked up): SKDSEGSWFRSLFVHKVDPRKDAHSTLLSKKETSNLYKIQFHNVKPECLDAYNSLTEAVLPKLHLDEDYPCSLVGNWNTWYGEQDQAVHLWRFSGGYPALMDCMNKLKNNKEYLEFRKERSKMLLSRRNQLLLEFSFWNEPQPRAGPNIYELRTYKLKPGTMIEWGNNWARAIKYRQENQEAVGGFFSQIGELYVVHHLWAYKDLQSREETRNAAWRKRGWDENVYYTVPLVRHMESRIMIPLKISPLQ

[2] = target: T2, Sfxn5_IPI:IPI00221602.1 (mouse) (UniProt Q925N0)
T2 sequence (looked up): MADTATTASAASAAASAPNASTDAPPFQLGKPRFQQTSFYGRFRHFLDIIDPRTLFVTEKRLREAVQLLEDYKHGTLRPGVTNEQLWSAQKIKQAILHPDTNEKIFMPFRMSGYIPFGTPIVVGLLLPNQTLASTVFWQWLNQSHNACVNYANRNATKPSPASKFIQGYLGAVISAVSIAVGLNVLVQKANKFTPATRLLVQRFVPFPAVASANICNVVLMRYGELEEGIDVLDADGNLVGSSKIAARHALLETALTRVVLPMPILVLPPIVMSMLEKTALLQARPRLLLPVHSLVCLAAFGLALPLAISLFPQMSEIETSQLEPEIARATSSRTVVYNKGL

[3] = target: T3, Ccdc127_IPI:IPI00131843.3 (mouse) (UniProt Q3TC33)
T3 sequence (looked up): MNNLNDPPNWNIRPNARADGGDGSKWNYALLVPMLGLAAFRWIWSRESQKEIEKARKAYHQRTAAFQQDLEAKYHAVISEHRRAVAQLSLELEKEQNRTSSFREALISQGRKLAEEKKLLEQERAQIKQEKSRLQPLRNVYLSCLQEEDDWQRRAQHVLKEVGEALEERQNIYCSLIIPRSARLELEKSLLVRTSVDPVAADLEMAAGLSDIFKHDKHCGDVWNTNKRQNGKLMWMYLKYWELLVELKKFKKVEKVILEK

[4] = target: Timm17b_IPI:IPI00129504.1 (mouse) (UniProt Q9Z0V7)
[5] = target: Atp1a3_IPI:IPI00122048.2 (mouse) (UniProt Q6PIC6)
[6] = target: Slc1a2_IPI:IPI00230289.1 (mouse) (UniProt P43006)
[7] = target: T4, C1qbp_IPI:IPI00132799.4 (mouse) (UniProt O35658)
T4 sequence (looked up): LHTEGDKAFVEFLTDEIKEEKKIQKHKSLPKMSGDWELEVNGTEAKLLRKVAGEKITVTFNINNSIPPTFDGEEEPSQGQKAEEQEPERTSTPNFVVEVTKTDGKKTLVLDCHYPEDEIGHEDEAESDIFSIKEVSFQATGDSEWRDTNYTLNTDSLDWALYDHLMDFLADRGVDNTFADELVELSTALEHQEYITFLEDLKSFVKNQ

[8] = target: IPI:IPI00123176.1_IPI:IPI00123176.1 (mouse)
[9] = target: Cend1_IPI:IPI00122826.1 (mouse) (UniProt Q9JKC6)
[10] = target: Vsnl1_IPI:IPI00230418.5 (mouse) (UniProt P62761)
[11] = target: Snap25_IPI:IPI00125635.1 (mouse) (UniProt P60879)
[12] = target: Mtx1_IPI:IPI00112327.1 (mouse) (UniProt P47802)
[13] = target: Acadsb_IPI:IPI00119842.1 (mouse) (UniProt Q9DBL1)
[14] = target: Rab5b_IPI:IPI00116563.2 (mouse) (UniProt P61021)
[15] = target: Cyc1_IPI:IPI00132728.2 (mouse) (UniProt Q9D0M3)
[16] = target: Dnaja3_IPI:IPI00120414.1 (mouse) (UniProt Q99M87)
[17] = target: Mthfd1l_IPI:IPI00228113.5 (mouse) (UniProt Q3V3R1)
[18] = target: Prdx3_IPI:IPI00116192.1 (mouse) (UniProt P20108)
[19] = target: Nup210l_IPI:IPI00356451.5 (mouse) (UniProt Q9D2F7)
[20] = target: Oxa1l_IPI:IPI00308001.1 (mouse) (UniProt Q8BGA9)
[21] = target: Uqcrb_IPI:IPI00132347.1 (mouse) (UniProt Q9D855)
[22] = target: Ppdpf_IPI:IPI00133078.1 (mouse) (UniProt Q9CR37)
[23] = target: Sccpdh_IPI:IPI00153266.1 (mouse) (UniProt Q8R127)
Sequence of Sccpdh_IPI:IPI00153266.1 (mouse) (Q8R127 2-429 limits assumed): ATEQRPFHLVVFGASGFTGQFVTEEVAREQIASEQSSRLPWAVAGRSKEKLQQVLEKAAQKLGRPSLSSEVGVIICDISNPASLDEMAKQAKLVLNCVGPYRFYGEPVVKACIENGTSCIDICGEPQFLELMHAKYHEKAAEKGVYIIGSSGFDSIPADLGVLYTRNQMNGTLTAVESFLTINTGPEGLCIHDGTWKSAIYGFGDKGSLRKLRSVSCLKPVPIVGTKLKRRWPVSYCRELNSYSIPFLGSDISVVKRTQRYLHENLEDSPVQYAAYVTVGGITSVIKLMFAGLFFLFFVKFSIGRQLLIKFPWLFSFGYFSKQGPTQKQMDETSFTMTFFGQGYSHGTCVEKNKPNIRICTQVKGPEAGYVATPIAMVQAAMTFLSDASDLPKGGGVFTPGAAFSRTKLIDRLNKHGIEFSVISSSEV

Sequence of Timm17b_IPI:IPI00129504.1 (mouse) (Q9Z0V7 whole entry): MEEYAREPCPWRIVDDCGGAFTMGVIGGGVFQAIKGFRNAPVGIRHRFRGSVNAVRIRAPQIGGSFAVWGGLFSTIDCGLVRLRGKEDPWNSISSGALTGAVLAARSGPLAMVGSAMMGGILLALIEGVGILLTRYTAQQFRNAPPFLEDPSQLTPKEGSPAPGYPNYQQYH
Sequence of GST-Httex1-23Q (P08515 1-218, tags or fused parts left off): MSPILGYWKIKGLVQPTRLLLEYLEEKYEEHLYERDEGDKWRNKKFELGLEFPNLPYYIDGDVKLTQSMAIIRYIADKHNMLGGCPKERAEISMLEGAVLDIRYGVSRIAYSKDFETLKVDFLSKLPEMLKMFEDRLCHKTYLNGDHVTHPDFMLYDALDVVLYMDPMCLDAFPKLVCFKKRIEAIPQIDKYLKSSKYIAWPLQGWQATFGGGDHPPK
Sequence of Cend1_IPI:IPI00122826.1 (mouse) (Q9JKC6 whole entry): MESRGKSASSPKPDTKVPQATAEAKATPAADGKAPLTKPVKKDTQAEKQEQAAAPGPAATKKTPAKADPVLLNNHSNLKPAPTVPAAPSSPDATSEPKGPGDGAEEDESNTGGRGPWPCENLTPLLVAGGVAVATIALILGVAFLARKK
Sequence of Vsnl1_IPI:IPI00230418.5 (mouse) (P62761 2-191 limits assumed): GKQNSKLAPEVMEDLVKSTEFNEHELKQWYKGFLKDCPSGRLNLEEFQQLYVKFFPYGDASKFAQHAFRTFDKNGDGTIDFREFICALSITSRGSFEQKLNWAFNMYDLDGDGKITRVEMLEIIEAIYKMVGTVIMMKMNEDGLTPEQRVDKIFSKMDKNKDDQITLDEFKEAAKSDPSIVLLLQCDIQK
Sequence of Slc1a2_IPI:IPI00230289.1 (mouse) (P43006 whole entry): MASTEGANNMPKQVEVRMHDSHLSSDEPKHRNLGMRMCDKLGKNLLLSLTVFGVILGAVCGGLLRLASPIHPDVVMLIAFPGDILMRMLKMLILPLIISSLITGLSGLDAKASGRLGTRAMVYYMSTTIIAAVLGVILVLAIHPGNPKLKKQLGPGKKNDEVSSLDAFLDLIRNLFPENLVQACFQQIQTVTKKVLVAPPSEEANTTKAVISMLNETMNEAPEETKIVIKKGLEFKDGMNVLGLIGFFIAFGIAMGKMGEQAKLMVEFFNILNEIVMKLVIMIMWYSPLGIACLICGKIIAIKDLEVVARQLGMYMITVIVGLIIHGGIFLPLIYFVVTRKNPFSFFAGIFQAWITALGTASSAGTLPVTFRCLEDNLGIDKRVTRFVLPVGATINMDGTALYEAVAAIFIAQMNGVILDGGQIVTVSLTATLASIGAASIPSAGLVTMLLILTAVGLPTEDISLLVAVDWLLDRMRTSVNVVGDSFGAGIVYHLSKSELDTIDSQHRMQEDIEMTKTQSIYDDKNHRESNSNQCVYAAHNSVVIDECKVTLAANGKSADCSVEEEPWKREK
Sequence of Rab5b_IPI:IPI00116563.2 (mouse) (P61021 2-215 limits assumed): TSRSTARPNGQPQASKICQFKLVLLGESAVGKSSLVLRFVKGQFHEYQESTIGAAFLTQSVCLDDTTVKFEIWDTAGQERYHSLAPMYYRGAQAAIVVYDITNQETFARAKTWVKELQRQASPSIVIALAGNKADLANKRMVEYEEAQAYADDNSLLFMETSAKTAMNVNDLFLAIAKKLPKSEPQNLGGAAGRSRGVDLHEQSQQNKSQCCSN
Sequence of Mtx1_IPI:IPI00112327.1 (mouse) (P47802 whole entry): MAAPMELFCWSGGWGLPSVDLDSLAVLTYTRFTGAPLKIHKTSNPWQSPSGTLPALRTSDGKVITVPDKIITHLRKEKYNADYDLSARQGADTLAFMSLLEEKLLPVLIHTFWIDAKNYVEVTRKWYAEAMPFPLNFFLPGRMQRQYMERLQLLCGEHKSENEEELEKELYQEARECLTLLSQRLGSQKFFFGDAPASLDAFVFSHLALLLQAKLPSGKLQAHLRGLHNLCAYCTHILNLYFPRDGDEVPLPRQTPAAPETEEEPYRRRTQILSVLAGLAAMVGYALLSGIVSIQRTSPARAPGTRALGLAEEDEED
Sequence of Uqcrb_IPI:IPI00132347.1 (mouse) (Q9D855 2-111 limits assumed): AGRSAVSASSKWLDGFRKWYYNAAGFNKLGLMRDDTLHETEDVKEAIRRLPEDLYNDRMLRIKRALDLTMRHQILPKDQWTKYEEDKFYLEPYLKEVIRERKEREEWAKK
Sequence of Cyc1_IPI:IPI00132728.2 (mouse) (Q9D0M3 85-325 limits assumed): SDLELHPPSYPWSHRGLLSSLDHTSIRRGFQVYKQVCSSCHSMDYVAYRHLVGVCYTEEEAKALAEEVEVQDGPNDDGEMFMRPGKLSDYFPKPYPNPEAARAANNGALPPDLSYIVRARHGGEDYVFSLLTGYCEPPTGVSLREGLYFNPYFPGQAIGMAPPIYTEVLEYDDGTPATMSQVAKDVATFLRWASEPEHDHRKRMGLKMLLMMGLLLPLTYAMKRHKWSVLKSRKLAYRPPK
Sequence of Oxa1l_IPI:IPI00308001.1 (mouse) (Q8BGA9 whole entry): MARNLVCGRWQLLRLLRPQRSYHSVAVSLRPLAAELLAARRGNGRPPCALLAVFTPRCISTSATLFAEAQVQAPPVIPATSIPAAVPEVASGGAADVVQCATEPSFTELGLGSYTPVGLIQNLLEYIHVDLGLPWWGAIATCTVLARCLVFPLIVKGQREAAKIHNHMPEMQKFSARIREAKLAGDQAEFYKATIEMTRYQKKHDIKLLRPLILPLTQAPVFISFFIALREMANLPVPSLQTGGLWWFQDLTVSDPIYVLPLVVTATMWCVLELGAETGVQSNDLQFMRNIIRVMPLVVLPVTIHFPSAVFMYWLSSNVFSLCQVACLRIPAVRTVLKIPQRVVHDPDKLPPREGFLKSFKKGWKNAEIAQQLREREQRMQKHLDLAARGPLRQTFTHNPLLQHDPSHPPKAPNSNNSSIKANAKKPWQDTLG
Sequence of Prdx3_IPI:IPI00116192.1 (mouse) (P20108 63-257 limits assumed): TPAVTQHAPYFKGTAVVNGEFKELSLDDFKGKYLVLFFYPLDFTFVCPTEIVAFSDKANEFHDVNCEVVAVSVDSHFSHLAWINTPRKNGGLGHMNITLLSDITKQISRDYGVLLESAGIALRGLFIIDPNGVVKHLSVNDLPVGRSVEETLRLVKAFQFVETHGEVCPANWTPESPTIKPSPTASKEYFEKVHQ
Sequence of Dnaja3_IPI:IPI00120414.1 (mouse) (Q99M87 whole entry): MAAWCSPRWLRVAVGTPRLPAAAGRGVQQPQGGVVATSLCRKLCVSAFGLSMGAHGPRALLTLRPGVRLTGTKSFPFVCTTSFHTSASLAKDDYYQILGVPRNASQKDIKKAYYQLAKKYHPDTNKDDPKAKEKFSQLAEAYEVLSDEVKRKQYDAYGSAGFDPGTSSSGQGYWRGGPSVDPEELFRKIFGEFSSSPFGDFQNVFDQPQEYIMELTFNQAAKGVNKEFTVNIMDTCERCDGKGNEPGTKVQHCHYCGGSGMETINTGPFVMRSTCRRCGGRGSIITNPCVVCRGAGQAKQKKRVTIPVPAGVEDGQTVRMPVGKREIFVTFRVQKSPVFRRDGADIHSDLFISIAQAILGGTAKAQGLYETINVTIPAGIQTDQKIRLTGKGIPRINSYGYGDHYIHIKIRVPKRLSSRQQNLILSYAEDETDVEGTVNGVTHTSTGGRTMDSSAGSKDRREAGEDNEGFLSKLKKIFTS
Sequence of Ppdpf_IPI:IPI00133078.1 (mouse) (Q9CR37 whole entry): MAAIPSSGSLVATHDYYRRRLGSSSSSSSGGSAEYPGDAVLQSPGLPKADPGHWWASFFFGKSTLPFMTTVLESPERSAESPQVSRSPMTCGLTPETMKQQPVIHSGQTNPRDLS
Sequence of Mthfd1l_IPI:IPI00228113.5 (mouse) (Q3V3R1 32-977 limits assumed): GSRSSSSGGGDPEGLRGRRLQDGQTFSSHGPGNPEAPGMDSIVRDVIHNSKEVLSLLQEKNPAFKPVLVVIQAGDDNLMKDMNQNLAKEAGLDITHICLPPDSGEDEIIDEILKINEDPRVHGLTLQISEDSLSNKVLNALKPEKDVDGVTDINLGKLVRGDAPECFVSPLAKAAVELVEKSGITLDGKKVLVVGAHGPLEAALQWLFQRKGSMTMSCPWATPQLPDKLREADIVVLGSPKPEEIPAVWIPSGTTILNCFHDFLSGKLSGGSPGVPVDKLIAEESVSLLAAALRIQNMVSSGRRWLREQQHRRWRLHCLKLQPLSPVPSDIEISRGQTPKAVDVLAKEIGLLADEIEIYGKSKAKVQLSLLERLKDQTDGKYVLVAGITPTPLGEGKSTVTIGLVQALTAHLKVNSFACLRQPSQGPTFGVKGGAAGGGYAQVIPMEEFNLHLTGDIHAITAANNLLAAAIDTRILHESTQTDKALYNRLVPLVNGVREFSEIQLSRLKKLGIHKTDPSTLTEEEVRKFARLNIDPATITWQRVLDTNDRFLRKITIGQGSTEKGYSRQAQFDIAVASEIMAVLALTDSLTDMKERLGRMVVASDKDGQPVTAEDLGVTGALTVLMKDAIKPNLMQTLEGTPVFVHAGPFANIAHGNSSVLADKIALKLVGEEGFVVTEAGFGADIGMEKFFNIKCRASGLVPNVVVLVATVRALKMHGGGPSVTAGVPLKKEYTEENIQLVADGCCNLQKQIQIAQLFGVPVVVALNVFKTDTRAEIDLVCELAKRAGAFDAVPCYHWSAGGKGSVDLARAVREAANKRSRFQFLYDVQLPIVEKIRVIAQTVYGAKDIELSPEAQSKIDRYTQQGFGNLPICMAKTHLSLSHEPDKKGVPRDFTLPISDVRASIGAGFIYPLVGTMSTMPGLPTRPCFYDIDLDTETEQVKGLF

Substance: GST-Httex1-23Q (from UniProt P08515 1-218; P42858 1-88)
No. of total peptides [1]: 1 peptides
No. of unique peptides [1]: 1 peptides
No. of total peptides [2]: 3 peptides
No. of unique peptides [2]: 3 peptides
No. of total peptides [3]: 2 peptides
No. of unique peptides [3]: 2 peptides
No. of total peptides [4]: 3 peptides
No. of unique peptides [4]: 3 peptides
No. of total peptides [5]: 2 peptides
No. of unique peptides [5]: 2 peptides
No. of total peptides [6]: 1 peptides
No. of unique peptides [6]: 1 peptides
No. of total peptides [7]: 6 peptides
No. of unique peptides [7]: 3 peptides
No. of total peptides [8]: 1 peptides
No. of unique peptides [8]: 1 peptides
No. of total peptides [9]: 3 peptides
No. of unique peptides [9]: 3 peptides
No. of total peptides [10]: 1 peptides
No. of unique peptides [10]: 1 peptides

No. of total peptides [1]: 1 peptides
No. of unique peptides [1]: 1 peptides
No. of total peptides [2]: 6 peptides
No. of unique peptides [2]: 5 peptides
No. of total peptides [11]: 1 peptides
No. of unique peptides [11]: 1 peptides
No. of total peptides [12]: 3 peptides
No. of unique peptides [12]: 3 peptides
No. of total peptides [13]: 2 peptides
No. of unique peptides [13]: 2 peptides
No. of total peptides [3]: 5 peptides
No. of unique peptides [3]: 5 peptides
No. of total peptides [14]: 1 peptides
No. of unique peptides [14]: 1 peptides
No. of total peptides [15]: 1 peptides
No. of unique peptides [15]: 1 peptides
No. of total peptides [16]: 1 peptides
No. of unique peptides [16]: 1 peptides
No. of total peptides [4]: 1 peptides
No. of unique peptides [4]: 1 peptides
No. of total peptides [5]: 3 peptides
No. of unique peptides [5]: 3 peptides
No. of total peptides [6]: 1 peptides
No. of unique peptides [6]: 1 peptides
No. of total peptides [17]: 2 peptides
No. of unique peptides [17]: 2 peptides
No. of total peptides [7]: 3 peptides
No. of unique peptides [7]: 2 peptides
No. of total peptides [8]: 2 peptides
No. of unique peptides [8]: 2 peptides
No. of total peptides [18]: 3 peptides
No. of unique peptides [18]: 3 peptides
No. of total peptides [9]: 5 peptides
No. of unique peptides [9]: 4 peptides
No. of total peptides [19]: 1 peptides
No. of unique peptides [19]: 1 peptides
No. of total peptides [10]: 2 peptides
No. of unique peptides [10]: 2 peptides
No. of total peptides [20]: 1 peptides
No. of unique peptides [20]: 1 peptides
No. of total peptides [21]: 1 peptides
No. of unique peptides [21]: 1 peptides
No. of total peptides [22]: 4 peptides
No. of unique peptides [22]: 4 peptides
No. of total peptides [23]: 1 peptides
No. of unique peptides [23]: 1 peptides
Substance: GST-Httex1-97Q (from UniProt P08515 1-218; P42858 1-88)
